Results from the DeepSol protein solubility set.

assay: soluble on expression in E. coli; label from the status in PepcDB or PDB records

Sequence	soluble on expression in E. coli
MSAAEIDEGVFETTATIDNGSFGTRTIRFETGRLALQAAGAVVAYLDDDNMLLSATTASKNPKEHFDFFPLTVDVEERMYAAGRIPGSFFRREGRPSTDAILTCRLIDRPLRPSFVDGLRNEIQIVVTILSLDPGDLYDVLAINAASASTQLGGLPFSGPIGGVRVALIDGTWVGFPTVDQIERAVFDMVVAGRIVEGDVAIMMVEAEATENVVELVEGGAQAPTESVVAAGLEAAKPFIAALCTAQQELADAAGKSGKPTVDFPVFPDYGEDVYYSVSSVATDELAAALTIGGKAERDQRIDEIKTQVVQRLADTYEGREKEVGAALRALTKKLVRQRILTDHFRIDGRGITDIRALSAEVAVVPRAHGSALFERGETQILGVTTLDMIKMAQQIDSLGPETSKRYMHHYNFPPFSTGETGRVGSPKRREIGHGALAERALVPVLPSVEEFPYAIRQVSEALGSNGSTSMGSVCASTLALLNAGVPLKAPVAGIAMGLVSDDIQVEGAVDGVVERRFVTLTDILGAEDAFGDMDFKVAGTKDFVTALQLDTKLDGIPSQVLAGALEQAKDARLTILEVMAEAIDRPDEMSPYAPRVTTIKVPVDKIGEVIGPKGKVINAITEETGAQISIEDDGTVFVGATDGPSAQAAIDKINAIANPQLPTVGERFLGTVVKTTDFGAFVSLLPGRDGLVHISKLGKGKRIAKVEDVVNVGDKLRVEIADIDKRGKISLILVADEDSTAAATDAATVTS	not soluble
MGSDKIHHHHHHMRKEKLYTGCLLLMALITGSCSEEENPEVRPATKPAEPYTSYYYYSYEAARQLSATDFALAEGQFTPGPTYIKGDTLFVANIQSGAFSLELYDRNKNRHLASLKSWKYKEAEQKFPDKIEAIGISGNRLYLANISSRIDVFDVRTLEFITRIGTGNWGDGINQMVHSHAMAITPDGNIMIRTKKNLLVYREADVTLENYQKVPFYCRSKGDGMDVNNGFHSHQMVQDSTGIVYLADFGQYGNQKIQAIDTTLIEKGDQKILIDTEKTLPLSFNPCGIALHENRMILSAQNGSLFIYDRTKGNWENSFKSVKGYTFKKPEKLLVDQNTLWVSDVNAQKLVEVKIYKNEIREY	not soluble
STSGTSVINDKVLQYETFISEVLRRDLQKVLEQRDAVYEKIAQYLQLKNTIQSIQGSGSKELKTDVDLGCNFYVQAHVPDASRIYVAVGYGFFVEFTHVEALKFIEKKTNQLTEYTEVLTKDAAKIKANIRMVLEGLRELQGLKDLPEDRRREVF	soluble
MINKLKENIGSVFVGKENVIDLLLVSLLADGHVLLENVPGTGKTLLAKTISKSIGGSFSRVQFTPDVLPSDVTGIEYFNPKTSEFELRIGPVMTNILLADEINRAMPRTQSSLLEAMEERQVTLEKQSTPLPKPFFVIATQNPIESQGTFPLPDAQLDRFLMTISIGHPTPKDELQMMRRFRNDLPLESVTSVISLEDILEAQKRVKEIFVSEPLEHYIIKLAHATRNHDYIANGVSPRATLALVRAVQALAFLRGREYCTPEDIQLLVPSVWNHRIVLSMEGALRTTKNDIMQSILKEVDVPVEIEQA	not soluble
VTTSSDPSSPVPQEDLDAVAAQLGREPRGVLEIAYRSPDGTPGVVKTAPKLPDGTPFPTLYYLTDPRLTAEASRQESAGVMREMTERLGQDPELAAAYLRAHESYLAERDAIEPLGTDFTGGGMPERVKCLHVLMAHSLAKGPGVNPLGDESVALAASAAGGKLRGTAIPADWPGIDDVESPEQ	not soluble
MAHHHHHHMPGRPGSAEELYGLVCALQKQQQLTQVDLRAVQRRTEALRQELHCQEALIAEEQAKREELAAKHTPGDAELRLAEAHARGAARASADAAQELRGARRAFLQKCHAQVLSVGKGPTDPRRSGAPVAPSNCTPLSSAADESSSGSLSAVGLGPRREATLMPAAAVRQLLLLLREKLMRCIEVGSTAVPAPFVVASVVAPATEGGSSEQPRDCRPSDEQGAAAKVATSVMSPLTAAKSPHGPPSKSVTDACVRGASDDQSPPREKKSIGFAPECCFERVTAVPAANVNRGTRETWLTEGAPGACGSTAVVPPAANVTLDGDNHPSNACLRNDSRPRTQRFDGHFTVRVASRSATLVAEAAAMGAKRQRASEAAIAAQSSPPKAARADGDKGVSASRAPQGAGVAAAFPPAYTSNRDRLVAPVDLLSPRSAEARRNGSSGSGRRTVWTWTRGTSREP	not soluble
MSPAQIIRTSHSFPPSFTGTSSSAENSHAQSPQQVLTRAFVASGELNAAFGRTSTASAQDFTSLLGTLQRELEKKTPAFPDLAELANQLADAAMGDQGGHWLGRDEQQTLKGMIDRCKSQLAHTPASDASYDLLAQVCENLKKARLHQSISQMTGEAHAKVRGVPDLLALIQLDPDILAEKPVGMPSYVKFSSFICMAKARTAELSENLRNASNEVALLLHPHADTILEQGSLRLQIVGF	not soluble
MWPPCFWWRTSPACAWGCGWPSRGRGTGFWRRPPRRRPWPLLREAELVVLDWMLPDEPGVRLLDRMRQGPYESLPVLMLTARAGVRDRVEGLSRGADDYLVKPFAVEELLARLEALLRRAGKRKVLRRGPLLLDLERMEARLEGNPLPLTRREFALLAYLAERPGRVCTREELLEAVWGPDYLGTPRTVDQHVLQLREKLGEDPKAPRFLETVRGVGYRFREEA	soluble
MTELEAAMGMIIDVFSRYSGSEGSTQTLTKGELKVLMEKELPGFLQSGKDKDAVDKLLKDLDANGDAQVDFSEFIVFVAAITSASHKYFEKTGLK	soluble
MGTLLATRLKNRRKELKMSQRELAEGICKQGQISRLESGEFTPGADFLHALAKKLKVSMDYFFDEQVVEEVNELSEFKKLAQTFITNRNYESLKYIYELENVKAHRLSLADKFYMEWIKSLIDFYFYGQKEEAITRLENMLPQLNVSDLNYLQVSNTLFNFYYDIEDLERFNEIRDKLEHQVNQLNLNTIEELELSIKFNYNVCRYLWLQKNIEEAITKITATIKQCKEYRTTYLLADLYLLMGSVSENFSSKSSVKEYFETAHFLYKLEENMSMALKVEHYFADITE	not soluble
MQEKAVVLDDQMIRRALTRISHEIVERNKGVDNCVLVGIKTRGIFIAQRLAERIGQIEGKEMEVGELDITLYRDDLTLQSKNKEPLVKGSDIPVDITKKKVILVDDVLYTGRTVRAAMDALMDLGRPSQIQLAVLVDRGHRELPIRADYVGKNIPTSSEERIEVDLQETDQQDRVSIYDK	soluble
MGSDKIHHHHHHEEPVGEFLPGQVESEENIEGIVTGAYAVLDGYYASDAINSGCSNWQFGDVVSDDAYKGGGGTGDQNQIHLMEIFNANPTGIDFEARWAALYEGIKRCNQAIRLLNGSEVKNKEQRLAEMRFLRGHYYFNLKIIYNQIPWIDETLVDPNEYNKKSNIEFSSDQLWEKILEEFSAAYKVLPESQADYGRPTKMAARAYMAKVYLYQSKWKECLEACDEVIQSGKYELFPDFRNVFLPENDNCSEIIFAIQLSINDGSPNNENGSYGDRLLPPGGPYPVYGFLRPTQNLVNAYKTDVKGLPYNDGKDVSENDYVDVRLDHTLARPNIPFMDVQLYDWTPREASVYGPYSPKKRLVSLNSTYYSPIWPYVNALNFYVIRYADLLLWRAEAAIETGDLETGRKYINMIRERAKNTQHVKTMDQSQDAANYKVGVYDEPFKSKNEAVQALRMERRLEMAHEGIRFFDLVRWGVADEVINAYIAKEKVFRSHLQNAHFVKGKHEYFPIPQSMIDICGTEVMKQNPGY	not soluble
MSLKKPLIVQKFGGTSVGSIERMQTVAEHIIKAKNDGNQVVVVVSAMAGETNRLVGLAQQVDSVPNARELDVLLSAGEQVSMALVAMTLHKMGYAARSLTGAQANIVTDNQHNDATIKHIDTRTITELLEQDFIVIVAGFQGINENGDITTLGRGGSDTSAVALAGALNADECQIFTDVDGIYTCDPRIVPSARKLDVIDFPSMEEMARKGAKVLHLPCVQYAWKHAVPLRVLSTFEVNQGSLIKGSAATHAVCGIALQRDMALIRVESESFPSIIKQCQMLGIEVCTTIDEPTHSAFVIKRDAYAKLQLVGADKIRGSEPVSLITKVGIQAGALVAHARQTLAQHGIDVRYVSASEQSSMLMLDPANVDRAANILHETYVTSEIPQEFGLKQTFLGEGHHHHHH	not soluble
ITEEEAKLFTEQLGDIIQFAEQLNELDTEGVEPTSHVLDMKNVLREDKPEKGLPVEDVLKNAPDHEDGQIR	not soluble
MSAMKKLVVLGGGYGGMRILQRLLPNDLPSDWEITLVDRLPYHCLKTEYYALAAGTASDHHLRVSFPEDPRLSTRYGSVSSIDLASKTVLFEEGEPLTYDTLIIGLGCEDKYHGVPGAKEHTYSIQSMEATRRTYEALNNVRPEGVVTIVGAGLSGVELASELRESRPDLTIKLLDRGDIILSMFPRRLSNYVQNWFIDHGVDIINKSNVTKVEEGAVYNHDERIESDAIIWTAGLEHHHHHH	soluble
MSLAPIAQAQHELSISRLIDAPPAKVFRAWTEPQWLMQWWGPHGMTTPECEMQLWAGGLFRTLMRAPDGCEYPNQGVFLEIAAPRRLVFTDAFGPGWVPSDKAFMTAVISFDEEQGKTRYTARAWHWNATDCRAHEEMGFHQGWGESLDRLVEVVTQRMPDLEHHHHHH	soluble
MLEEDKIKGMFNPKIWDKTFQDGLKKEIEDSQPYNWGTIHELVNDDLLRAVRKEIETEIHFTKKETDIYRVNQSGDLANLSGLDWDDLSRLPNLFKLRQILYSKQYRDFFGYVTKAGKLSGSKTDMSINTYTKGCHLLTHDDVIGSRRISFILYLPDPDRKWKSHYGGGLRLFPSILPNVPHSDPSAKLVPQFNQIAFFKVLPGFSFHDVEEVKVDKHRLSIQGWYHIPQVGEEGYIPGEEEAWVRNNTSTLAQIESNVLEDFEFPKDERNILSFHEVKHFEKMLKGDAGAKTDNTPKESMTSVISDSVKLSEAEFTYLSQYISPEHLSSKGIEKLQKQFVENSSLQIESFLNDDKSELLKKVIKQKELEQECPYHSKDVKAPWKTAIPPHKARYLYIDGKEYRNFQTEADILEALNNNDLPNFQFTKDAIKIISDASGNSRENNFDAELALIDLAVFHKSTIFKKYLALLTSLCPVSEQILIRRFRPGMDFTLATKCRFNELLKSNPDIIDAVLEGTLCLTPSAGWESGELGGYELYMMDDDEDNKQYLKEDVEDASVYRADDSGDSVLINDPPAWNTFNLVLRDESVLEFVKYVSWSAKSSRWDVKMKWDVKSCDEDGQEDEALEHHHHHH	soluble
MDIVSVALQRYSTKAFDPSKKLTAEEADKIKTLLQYSPSSTNSQPWHFIVASTEEGKARVAKSAAGNYTFNERKMLDASHVVVFCAKTAMDDAWLERVVDQEDADGRFATPEAKAANDKGRRFFADMHRVSLKDDHQWMAKQVYLNVGNFLLGVAAMGLDAVPIEGFDAEVLDAEFGLKEKGYTSLVVVPVGHHSVEDFNAGLPKSRLPLETTLTEV	not soluble
MSLSKFAERLQTVANKPEVFQKFSRGLERESLRYTPEGALTQTPHPKALGAALTHRWITTDFAESLLEFITPVSHEVDTLLAQMSDIHHFAQTKLGDEKLWPLSMPCYVGSEEGIVLAQYGSSNTGKMKTLYREGLKRRYGSLMQIISGVHFNFSFPESFWDALFGEQEESARQASKSAAYFGVIRNYYRFGWLIPYLFGASPALCSSFLQGRKTDLPFESIGKTLYLPYATSLRLSDLGYTNSAQSVLQIGFNSIEQYLQGLNEAIRTPSAEFAKLGVKVEGEYRQLNSNVLQIENELYAPIRPKRVTQSGERPSQALARAGVEYIEVRSLDVNPFSPIGINEDQVRFLDLFLAWTALSDSDPMDGCELACWRDNWRKVVLEGRKPGLELQIGCHGEVLTLQAWAKRVFADLRVIAETMDAALGGDAYQAVCAKLETWIENPELTLSAQILAEIKQHGGLGKTGCALGNEYRAVNLQHQYQFYSQDEMEQEVRRSTQAQADIEAKETLNFDAYLTQYFAYLQAVSEGGSHHHHHH	soluble
